Reference: WO2012008397A1 (dated 2012)
Substitutions are numbered along the chain they refer to.

B1: 348-H4-357-L4 (antibody, human IgG1, kappa, V domains shown)
VH: QVQLVQSGAEVKKPGASVKVSCKASGYTFTHYSMHWVRQAPGQGLEWMGWINTYTGEPTYADDFKGRFVFSLDTSVSTAYLQLSSLKAEDTAVYYCATYYRYERDFDYWGQGTLVTVSS
VL: DIVMTQSPLSLPVTPGEPASISCRSSQSIVHSSGITYLEWYLQKPGQSPQLLIYKVSNRFSGVPDRFSGSGSGTDFTLKISRVEAEDVGVYYCFQGSHVPYTFGQGTKVEIKR
notes: human IgG1 / kappa; also called antibody of humanized heavy chain of SH348-1 and humanized light chain of SH357-1; swapped antibody
B2: 348-H4-357-L5 (antibody, human IgG1, kappa, V domains shown)
VH: B1 VH
VL: B1 VL with I2V, V3L, Q50K
notes: human IgG1 / kappa
B3: 348-H5-357-L5 (antibody, human IgG1, kappa, V domains shown)
VH: B1 VH with R38K, E46K, V69A, D73E, Y95F
VL: B1 VL with I2V, V3L, Q50K
notes: human IgG1 / kappa
B4: 348-H5-357-L4 (antibody, human IgG1, kappa, V domains shown)
VH: B1 VH with R38K, E46K, V69A, D73E, Y95F
VL: B1 VL
notes: human IgG1 / kappa

Biological target: T1, His-Fibronectin type III domain (426-540) (human, UniProt P29317 426-540)
T1 construct: also called His-Fibrinctin type III domain (426-540); Fibronectin type III domain of EPHA2; not shown: histidine tag added to the amino terminus
Assay: SPR (Biacore T100), antibody captured on anti-human IgG(Fc), antigen as analyte, 1:1 model

T1 sequence (P29317 426-540): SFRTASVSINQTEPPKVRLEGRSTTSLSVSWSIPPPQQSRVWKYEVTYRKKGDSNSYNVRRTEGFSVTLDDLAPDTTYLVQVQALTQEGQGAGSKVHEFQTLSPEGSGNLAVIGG

Point of comparison: B3, Kd 300 pM. Against it:
- B1 — within 1.5-fold, 370 pM
- B2 — within 1.5-fold, 370 pM
- B4 — within 1.5-fold, 320 pM
